From patent US20250313605A1
*1 amine or outer side, *2 acyl side, *3 side chain or, on linkers, in order; H or OH if unused. Where no end group is shown, it is not given here. Side-chain parts run from the residue outwards. [ ]: non-standard residue; d: D form. The star is where a group is joined. C20 diacid = O=C(O)CCCCCCCCCCCCCCCCCCC(=O)*; γGlu = O=C(O)[C@H](CCC(=O)[*:2])N[*:1]; αMeL = CC(C)C[C@](C)(N)C(=O)O; αMeK = C[C@](N)(CCCCN)C(=O)O; AEEA = NCCOCCOCC(=O)O; Aib = CC(C)(N)C(=O)O

T1: human GIP receptor (human), P48546
T1 chain: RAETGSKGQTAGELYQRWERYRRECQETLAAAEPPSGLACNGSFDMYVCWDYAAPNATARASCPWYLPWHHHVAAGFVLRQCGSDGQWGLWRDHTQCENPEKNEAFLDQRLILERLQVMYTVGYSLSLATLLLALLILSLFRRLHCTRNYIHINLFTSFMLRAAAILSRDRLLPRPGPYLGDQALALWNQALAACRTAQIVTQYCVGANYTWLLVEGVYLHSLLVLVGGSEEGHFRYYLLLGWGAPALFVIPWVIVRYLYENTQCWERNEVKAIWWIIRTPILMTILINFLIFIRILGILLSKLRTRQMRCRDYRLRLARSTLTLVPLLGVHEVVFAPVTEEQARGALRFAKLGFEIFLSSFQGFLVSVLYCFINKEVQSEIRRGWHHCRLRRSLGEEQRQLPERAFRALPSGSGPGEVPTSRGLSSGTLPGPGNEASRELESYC

T2: human GLP-1 receptor (human), P43220
T2 chain: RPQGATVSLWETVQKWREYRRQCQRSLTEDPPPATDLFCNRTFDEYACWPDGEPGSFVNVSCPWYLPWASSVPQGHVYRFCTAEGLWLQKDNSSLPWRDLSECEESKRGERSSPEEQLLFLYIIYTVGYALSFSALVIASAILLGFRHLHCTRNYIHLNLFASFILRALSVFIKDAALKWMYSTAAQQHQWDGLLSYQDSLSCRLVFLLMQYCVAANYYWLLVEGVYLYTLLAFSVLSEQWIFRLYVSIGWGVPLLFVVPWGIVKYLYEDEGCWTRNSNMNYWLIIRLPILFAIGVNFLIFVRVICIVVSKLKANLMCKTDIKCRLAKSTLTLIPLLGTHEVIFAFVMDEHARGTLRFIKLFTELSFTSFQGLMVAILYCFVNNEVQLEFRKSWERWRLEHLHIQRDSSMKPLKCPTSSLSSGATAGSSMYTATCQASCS

B1: Example 9 (peptide)
peptide: Y[Aib]QGTFTSDYSI[αMeL]LDKK([γGlu-γGlu-C20 diacid])AQHAFIEYLLEGGPSSGAPPPS-NH2
modifications: N-terminus assumed
SMILES: CC[C@H](C)[C@H](NC(=O)[C@H](Cc1ccccc1)NC(=O)[C@H](C)NC(=O)[C@H](Cc1c[nH]cn1)NC(=O)[C@H](CCC(N)=O)NC(=O)[C@H](C)NC(=O)[C@H](CCCCNC(=O)CC[C@H](NC(=O)CC[C@H](NC(=O)CCCCCCCCCCCCCCCCCCC(=O)O)C(=O)O)C(=O)O)NC(=O)[C@H](CCCCN)NC(=O)[C@H](CC(=O)O)NC(=O)[C@H](CC(C)C)NC(=O)[C@](C)(CC(C)C)NC(=O)[C@@H](NC(=O)[C@H](CO)NC(=O)[C@H](Cc1ccc(O)cc1)NC(=O)[C@H](CC(=O)O)NC(=O)[C@H](CO)NC(=O)[C@@H](NC(=O)[C@H](Cc1ccccc1)NC(=O)[C@@H](NC(=O)CNC(=O)[C@H](CCC(N)=O)NC(=O)C(C)(C)NC(=O)[C@@H](N)Cc1ccc(O)cc1)[C@@H](C)O)[C@@H](C)O)[C@@H](C)CC)C(=O)N[C@@H](CCC(=O)O)C(=O)N[C@@H](Cc1ccc(O)cc1)C(=O)N[C@@H](CC(C)C)C(=O)N[C@@H](CC(C)C)C(=O)N[C@@H](CCC(=O)O)C(=O)NCC(=O)NCC(=O)N1CCC[C@H]1C(=O)N[C@@H](CO)C(=O)N[C@@H](CO)C(=O)NCC(=O)N[C@@H](C)C(=O)N1CCC[C@H]1C(=O)N1CCC[C@H]1C(=O)N1CCC[C@H]1C(=O)N[C@@H](CO)C(N)=O
B2: Example 1 (peptide)
peptide: H-Y[Aib]QGTFTSDYSI[αMeL]LDKK([AEEA-AEEA-γGlu-C20 diacid])AQ[αMeK]AFIEYLLA[Aib]GPSSGAPPPS-NH2
SMILES: CC[C@H](C)[C@H](NC(=O)[C@H](Cc1ccccc1)NC(=O)[C@H](C)NC(=O)[C@](C)(CCCCN)NC(=O)[C@H](CCC(N)=O)NC(=O)[C@H](C)NC(=O)[C@H](CCCCNC(=O)COCCOCCNC(=O)COCCOCCNC(=O)CC[C@H](NC(=O)CCCCCCCCCCCCCCCCCCC(=O)O)C(=O)O)NC(=O)[C@H](CCCCN)NC(=O)[C@H](CC(=O)O)NC(=O)[C@H](CC(C)C)NC(=O)[C@](C)(CC(C)C)NC(=O)[C@@H](NC(=O)[C@H](CO)NC(=O)[C@H](Cc1ccc(O)cc1)NC(=O)[C@H](CC(=O)O)NC(=O)[C@H](CO)NC(=O)[C@@H](NC(=O)[C@H](Cc1ccccc1)NC(=O)[C@@H](NC(=O)CNC(=O)[C@H](CCC(N)=O)NC(=O)C(C)(C)NC(=O)[C@@H](N)Cc1ccc(O)cc1)[C@@H](C)O)[C@@H](C)O)[C@@H](C)CC)C(=O)N[C@@H](CCC(=O)O)C(=O)N[C@@H](Cc1ccc(O)cc1)C(=O)N[C@@H](CC(C)C)C(=O)N[C@@H](CC(C)C)C(=O)N[C@@H](C)C(=O)NC(C)(C)C(=O)NCC(=O)N1CCC[C@H]1C(=O)N[C@@H](CO)C(=O)N[C@@H](CO)C(=O)NCC(=O)N[C@@H](C)C(=O)N1CCC[C@H]1C(=O)N1CCC[C@H]1C(=O)N1CCC[C@H]1C(=O)N[C@@H](CO)C(N)=O
B3: Example 2 (peptide)
peptide: Y[Aib]QGTFTSDYSI[αMeL]LDKK([AEEA-γGlu-C20 diacid])AQHAFIEYLLA[Aib]GPSSGAPPPS-NH2
modifications: N-terminus assumed
SMILES: CC[C@H](C)[C@H](NC(=O)[C@H](Cc1ccccc1)NC(=O)[C@H](C)NC(=O)[C@H](Cc1c[nH]cn1)NC(=O)[C@H](CCC(N)=O)NC(=O)[C@H](C)NC(=O)[C@H](CCCCNC(=O)COCCOCCNC(=O)CC[C@H](NC(=O)CCCCCCCCCCCCCCCCCCC(=O)O)C(=O)O)NC(=O)[C@H](CCCCN)NC(=O)[C@H](CC(=O)O)NC(=O)[C@H](CC(C)C)NC(=O)[C@](C)(CC(C)C)NC(=O)[C@@H](NC(=O)[C@H](CO)NC(=O)[C@H](Cc1ccc(O)cc1)NC(=O)[C@H](CC(=O)O)NC(=O)[C@H](CO)NC(=O)[C@@H](NC(=O)[C@H](Cc1ccccc1)NC(=O)[C@@H](NC(=O)CNC(=O)[C@H](CCC(N)=O)NC(=O)C(C)(C)NC(=O)[C@@H](N)Cc1ccc(O)cc1)[C@@H](C)O)[C@@H](C)O)[C@@H](C)CC)C(=O)N[C@@H](CCC(=O)O)C(=O)N[C@@H](Cc1ccc(O)cc1)C(=O)N[C@@H](CC(C)C)C(=O)N[C@@H](CC(C)C)C(=O)N[C@@H](C)C(=O)NC(C)(C)C(=O)NCC(=O)N1CCC[C@H]1C(=O)N[C@@H](CO)C(=O)N[C@@H](CO)C(=O)NCC(=O)N[C@@H](C)C(=O)N1CCC[C@H]1C(=O)N1CCC[C@H]1C(=O)N1CCC[C@H]1C(=O)N[C@@H](CO)C(N)=O

Experiments:
[1] = target: T1, human GIP receptor (human), P48546; experiment: cell-based or functional assay
[2] = target: T2, human GLP-1 receptor (human), P43220; experiment: cell-based or functional assay
[3] = target: human glucagon receptor (human), P47871; experiment: cell-based or functional assay
Sequence of human glucagon receptor (human), P47871 (P47871 26-477): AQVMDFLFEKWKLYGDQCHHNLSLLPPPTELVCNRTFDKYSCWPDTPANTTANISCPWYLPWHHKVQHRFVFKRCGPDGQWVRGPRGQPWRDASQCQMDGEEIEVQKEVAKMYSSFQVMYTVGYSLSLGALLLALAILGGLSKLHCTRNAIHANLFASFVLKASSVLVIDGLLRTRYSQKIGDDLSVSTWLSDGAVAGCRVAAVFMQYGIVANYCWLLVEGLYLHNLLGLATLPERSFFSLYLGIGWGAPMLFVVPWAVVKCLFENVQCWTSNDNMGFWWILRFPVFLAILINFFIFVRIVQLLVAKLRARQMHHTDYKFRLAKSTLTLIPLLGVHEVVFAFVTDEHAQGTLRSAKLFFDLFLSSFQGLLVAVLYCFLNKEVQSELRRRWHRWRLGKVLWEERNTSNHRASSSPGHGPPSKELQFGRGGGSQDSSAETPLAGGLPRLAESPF

[4] = target: T1, human GIP receptor (human), P48546; experiment: radioligand competition SPA, HEK293 membranes
[5] = target: T2, human GLP-1 receptor (human), P43220; experiment: radioligand competition SPA, HEK293 membranes
[6] = target: human glucagon receptor (human), P47871; experiment: radioligand competition SPA, HEK293 membranes

| Binder | cAMP EC50 (0.1% casein) [1] [nM] | cAMP EC50 (FBS and BSA present) [1] [nM] | cAMP EC50 (0.1% casein) [2] [nM] | cAMP EC50 (FBS and BSA present) [2] [nM] | cAMP EC50 (0.1% casein) [3] [nM] | cAMP EC50 (FBS and BSA present) [3] [nM] | Ki [4] [nM] | Ki [5] [nM] | Ki [6] [nM] |
| --- | --- | --- | --- | --- | --- | --- | --- | --- | --- |
| B1 | 0.0522 | 4.17 | 0.0931 | 9.76 | 0.139 | 6.32 | 0.126 | 11.5 | 8.27 |
| Y[Aib]QGTFTSDYSI[αMeL]LDKK([AEEA-γGlu-C20 diacid])AQHAFIEYLLEGGPSSGAPPPS-NH2 [Example 10] | 0.0928 | 4.3 | 0.143 | 19.3 | 0.123 | 8.42 | 0.118 | 12 | 7.37 |
| B2 | 0.0523 | 0.914 | 0.153 | 7.49 | 0.114 | 2.54 | 0.0469 | 2.64 | 8.41 |
| B3 | 0.0474 | 2.19 | 0.207 | 12.8 | 0.0553 | 2.66 | 0.0665 | 4.5 | 3.71 |
